The target of data set [1] is T1, hrGDF-15 (Homo sapiens, UniProt Q99988).
T1 sequence (Q99988 with tags, fused parts or gaps limits assumed): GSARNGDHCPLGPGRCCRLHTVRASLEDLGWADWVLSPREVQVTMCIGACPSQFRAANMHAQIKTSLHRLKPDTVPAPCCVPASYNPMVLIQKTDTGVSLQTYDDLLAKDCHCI
The data set is described as follows: Colorimetric ELISA binding to coated hrGDF-15. The settings on record: serial 1:3 dilution from 333 ng/ml; in comparison to B12. Here is the method: Additionally, by using a colorimetric assay, it was confirmed that all anti-GDF-15 antibodies used in the study bound to GDF-15 in a concentration-dependent manner. To determine the binding of B1-23 antibody variants to GDF-15, a […] ELISA experiment was performed. […] Therefore, Maxisorp 96 well plates (Nunc) were coated with hrGDF-15 (25 ng protein per well, 50 μl volume) over night at 4° C. The following day, plates were washed to remove unbound protein (3 times with 150 μl of PBS 0.05% Tween®) and non-specific binding sites were blocked with 150 μl of PBS 1% BSA for 2 hours at room temperature. Again, plates were washed and different variants of B1-23 test antibodies were applied (50 μl volume). To inquire specificity of the antibody binding, endpoint dilution was performed starting from 333 ng/ml and 1:3 serial dilution. As background control, PBS 1% BSA was applied. Following binding for 1 hour at room temperature, wells were washed as described above. As secondary antibody HRP conjugated Anti-human IgG (Life technologies, 1:5000) was applied for 1 hour at room temperature. Wells were washed as described above to remove unbound secondary antibody. […] For analysis, optical density at 450 nm was quantified using the ELISA reader (Tecan Sunrise) and the corresponding Magellan software.
For orientation: An ELISA detects its analyte on a solid surface through an enzyme-linked reagent.

Data set [2] in a line: Protein A elution at physiological pH and 10 fold concentration via spin columns, turbidity. The format is physicochemical. The settings on record: TRIS Buffer at physiological pH, from 0.5 mg/ml. Here is the method:
FIG. 7: Improved solubility of the chimeric and the humanized antibody at physiological pH.
5 mg of antibody (B1-23, chimeric B1-23=“ChimB1-23”, H1L5) were loaded on Proteus™ protein A columns, eluted and collected in a TRIS Buffer at physiological pH. After elution, the quality of the purified antibodies was assessed by Coomassie Brilliant Blue gel analysis. The concentration of the eluted antibodies was measured photometrically as well as in a Bradford assay (Roti-Quant, Carl Roth, Karlsruhe, Germany). […] The antibodies were then 10 fold concentrated via spin columns (Centricon, MWCO 30). […] All concentrated eluates were then centrifuged for 5 min at 13000 rpm in order to precipitate antibody aggregates. The remaining amount of soluble antibodies was finally determined via Bradford assay from the supernatant.

The nature of data set [3]: Gel electrophoresis and coomassie staining of antibodies used in study No. 140123. The format is physicochemical. As to the method:
FIG. 6: Coomassie stain of antibodies used in the study No. 140123.
The quality of the humanized anti-GDF-15 antibody B1-23-H1L5 used in the study was tested by using gel electrophoresis and coomassie staining of the antibodies (see FIG. 6).

Data set [4] relates to cancer cells. Kind of data set: Cytotoxic effects of the antibody (different assays). The data set is classed as cell-based. From the text:
The strongest antiproliferative effect was observed using the prostate cancer cell line LnCap, which produces lots of GDF-15.

In data set [5] the target is T2, recombinant mature human GDF-15 protein (Homo sapiens, UniProt Q99988).
T2 construct: made in house; host or cells: Baculovirus-transfected HighFive insect cells
T2 sequence (Q99988 with tags, fused parts or gaps): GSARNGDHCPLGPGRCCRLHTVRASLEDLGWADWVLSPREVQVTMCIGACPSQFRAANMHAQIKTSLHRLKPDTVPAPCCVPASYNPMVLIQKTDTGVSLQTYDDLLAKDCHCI
Kind of data set: Surface plasmon resonance binding to immobilized recombinant mature human GDF-15 (insect cell derived). Conditions: GDF-15 derived from insect cell expression; 25° C.; 1:1 Langmuir-type interaction. As to the method:
Binding of monoclonal anti-human-GDF-15 antibodies according to the invention is generally assessed by employing surface plasmon resonance measurements using a Bio-Rad® ProteOn™ XPR36 system and Bio-Rad® GLC sensor chips as described for murine anti-human GDF-15 mAb-B1-23 in Example 1.
Binding of the monoclonal anti-human-GDF-15 antibody anti-human GDF-15 mAb-B1-23 was measured by employing surface plasmon resonance measurements using a Bio-Rad® ProteOn™ XPR36 system and Bio-Rad® GLC sensor chips:
For preparing the biosensors recombinant mature human GDF-15 protein was immobilized on flow cells 1 and 2. On one flow cell recombinant GDF-15 derived from Baculvirus-transfected insect cells (HighFive insect cells) and on the other recombinant protein derived from expression in E. coli was used. […] The resulting sensogram was analyzed using the software ProteOn Manager version 3.0. […] For the association rate constant a value of 5.4±0.06×10^5 M^−1s^−1 (kon) and for the dissociation rate constant a value of 4.3±0.03×10^−4 s^−1 (koff) could be determined (values are for the interaction of anti-human GDF-15 mAb-B1-23 with GDF-15 derived from insect cell expression).
A general note: SPR reads the build-up and loss of mass on a sensor chip optically.

Data set [6] in a line: Study No. 140123: feed consumption of UACC-257 inoculated mice. The format is in vivo, Balb/c^nu/nu mice. Here is the method:
Treatment of cancer-induced weight loss with anti-GDF-15 antibodies. In the underlying animal study No. 140123, 10 Balb/c^nu/nu mice per treatment group were subcutaneously inoculated with 10×10^6 UACC-257 cells per animal in a 1:1 volume ratio with matrigel (100 μl cells+100 μl matrigel). The animals were treated on the same day with the respective antibodies, as indicated below:
In addition to evaluating the mean body weight of the mice, the feed consumption of the mice was evaluated by pairwise comparisons of the study groups (Table 1).

The record followed here is patent publication US11760795B2, “Monoclonal antibodies to growth and differentiation factor 15 (GDF-15), and uses thereof for treating cancer cachexia and cancer” (JULIUS-MAXIMILIANS-UNIVERSITÄT WÜRZBURG, priority 2014, dated 2023).

B1: mAb-B1-23: murine IgG2a (kappa) monoclonal anti-human GDF-15 antibody produced by hybridoma cell line B1-23, DSM ACC3142 (antibody, V domains shown)
VH: QVKLQQSGPGILQSSQTLSLTCSFSGFSLSTSGMGVSWIRQPSGKGLEWLAHIYWDDDKRYNPTLKSRLTISKDPSRNQVFLKITSVDTADTATYYCARSSYGAMDYWGQGTSVTVSS
VL: DIVLTQSPKFMSTSVGDRVSVTCKASQNVGTNVAWFLQKPGQSPKALIYSASYRYSGVPDRFTGSGSGTDFTLTISNVQSEDLAEYFCQQYNNFPYTFGGGTKLEIKRTVA
Consider B1, for which, in data set [1], the “binding to GDF-15 in ELISA” value is on record as “clearly concentration-dependent binding”. Besides, the “aggregation after 10 fold concentration” value in data set [2] is given as “presence of precipitates”. The “band appearance / aggregation in coomassie gel” value in data set [3] was “less sharp and at a higher molecular weight”. In addition, the “cytotoxic effects of the antibody” value in data set [4] was “excluded”. In data set [5], the “association rate constant (kon)” value was 5.4±0.06×10^5 M^−1s^−1 and the “dissociation rate constant (koff)” value was 4.3±0.03×10^−4 s^−1. The “Feed consumption per mouse and day” value in data set [6] (average over day 17-34 intervals, with standard deviation) turned out to be 3.6 ± 0.2 g. Moreover, the “feed consumption compared with groups which did not receive the anti-GDF-15 antibodies” value in data set [6] (mouse, in vivo) was “significantly higher”.
